Values quoted from earlier work in patent publication US20040253224A1, “Mammalian mucinase, its recombinant production, and its use in therapy or prophylaxis against diseases in which mucus is involved or infectious diseases” (priority 2001, published 2004).

What was measured:
[1] = aerosolized, Phase 3, cystic fibrosis patients
[2] = in vitro

B1: recombinant human DNase I: recombinant human deoxyribonuclease I, an enzyme that selectively cleaves DNA (Pulmozyme, Genentech) (protein, UniProt P24855 23-282, looked up)
Deoxyribonuclease-1: LKIAAFNIQTFGETKMSNATLVSYIVQILSRYDIALVQEVRDSHLTAVGKLLDNLNQDAPDTYHYVVSEPLGRNSYKERYLFVYRPDQVSAVDSYYYDDGCEPCGNDTFNREPAIVRFFSRFTEVREFAIVPLHAAPGDAVAEIDALYDVYLDVQEKWGLEDVMLMGDFNAGCSYVRPSQWSSIRLWTSPTFQWLIPDSADTTATPTHCAYDRIVVAGMLLRGAVVPDSALPFNFQAAYGLSDQLAQAISDHYPVEVMLK
- improvement in FEV1 [1]: 5.6-5.8%
- reduction in respiratory exacerbations [1]: 28-37%
- mucociliary transportability of CF sputum [2]: increased
- viscosity and adhesiveness of purulent CF sputum [2]: decrease
